Test results from paper PMC4285857 (Proteins, 2013).

T1: recombinant human IL-23R-IgG chimera (human, UniProt Q5VWK5 24-355, glycosylated)
T1 sequence (looked up): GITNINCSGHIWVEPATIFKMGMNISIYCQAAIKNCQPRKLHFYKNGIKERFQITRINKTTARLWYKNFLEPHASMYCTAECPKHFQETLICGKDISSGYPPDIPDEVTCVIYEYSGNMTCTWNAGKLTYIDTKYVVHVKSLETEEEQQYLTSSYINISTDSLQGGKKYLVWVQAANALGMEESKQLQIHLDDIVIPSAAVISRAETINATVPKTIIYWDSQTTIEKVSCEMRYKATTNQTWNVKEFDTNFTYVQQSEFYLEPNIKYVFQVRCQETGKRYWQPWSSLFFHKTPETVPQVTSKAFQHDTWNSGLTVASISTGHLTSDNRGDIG

T2: H-exIL-23R, recombinant extracellular part of the human IL-23 receptor with N-terminal His6 tag (human, UniProt Q5VWK5 24-350)
T2 sequence (looked up): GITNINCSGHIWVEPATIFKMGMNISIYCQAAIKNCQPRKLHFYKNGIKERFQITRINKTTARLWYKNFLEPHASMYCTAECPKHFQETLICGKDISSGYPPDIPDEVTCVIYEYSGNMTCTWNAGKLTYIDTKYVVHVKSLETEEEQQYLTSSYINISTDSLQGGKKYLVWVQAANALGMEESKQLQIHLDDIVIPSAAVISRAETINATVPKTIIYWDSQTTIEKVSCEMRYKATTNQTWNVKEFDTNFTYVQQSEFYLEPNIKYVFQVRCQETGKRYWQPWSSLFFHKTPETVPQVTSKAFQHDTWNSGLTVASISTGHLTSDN


Assays:
[1] = target: T1, recombinant human IL-23R-IgG chimera; assay: SPR
[2] = target: T2, H-exIL-23R, recombinant extracellular …; assay: ELISA
[3] = target: T1, recombinant human IL-23R-IgG chimera; assay: ELISA

| Kd [1] | Binder | other results |
| --- | --- | --- |
| 1.3 nM | His6-LAEAKVLANRELDKYGVSDYYKNRINPACHVLSVKSNIDWILASLP-{TolA-AviTag(biotin)} (designed binder, not fully specified) [His6-REX009-TolA-AVI] | – |
| – | His6-LAEAKVLANRELDKYGVSDRYKNSINRALPVAAVKWALDLILAWLP-{TolA-AviTag(biotin)} (designed binder, not fully specified) [His6-REX128-TolA-AVI] | binding result [2]: binds |
| ~1 nM | His6-LAEAKVLANRELDKYGVSDHYKNWINPARRVRPVKWLIDAILAALP-{TolA-AviTag(biotin)} (designed binder, not fully specified) [His6-REX125-TolA-AVI] | – |
| – | DH-MBP-p19, double-His6-MBP-p19 fusion protein with a C-terminal 40 aa solubility-supporting prolongation (ligand, human) RAVPGGSSPAWTQCQQLSQKLCTLAWSAHPLVGHMDLREEGDEETTNDVPHIQCGDGCDPQGLRDNSQFCLQRIHQGLIFYEKLLGSDIFTGEPSLLPDSPVGQLHASLLGLSQLLQPEGHHWETQQIPSLSPSQPWQRLLLRFKILRSLQAFVAVAARVFAHGAATLSPLEKKTCTSRASSTTTTTTEIRLLTKPERKLSWLLPPLSNN | binding result [3]: binds |
